Marks after values point to notes of the source that are not given here. Residues, ends and D or L forms follow the SMILES beside them. No end group written: not given here.
Legend:
K3a,eRh2 = experiment: Covalent modification of E3gX peptides with diazo reagent 1 catalysed by K3a,eRh2; type: biochemical; details: for krel, relative modification rate: initial rate of product formation at 1 hour, corrected for catalyst concentration; for modification of variable residue (in words): metallopeptide catalyst K3a,eRh2 and diazo reagent 1
Description: Binding the dirhodium center at positions a and e ensures that the metal will be held proximal to the coil-coil interface, and the a, e spacing serves to stabilize the necessary helical structure.
Covalent modification of variable residue g was then examined.
Relative modification rates (krel) were based on conversion at 1 hour, which corrects for catalyst loading and assumes first-order catalysis.

bZip domain of c-Fos = target: T1, bZip domain of c-Fos (Homo sapiens, UniProt P01100, A167K/D174T/K188A/T181D); experiment: Covalent modification of c-Fos with diazo reagent 1 catalysed by metallopeptide; type: biochemical; details: for c-Fos residue modified: MS/MS fragmentation analysis; for conversion of c-Fos: 45 h, metallopeptide and diazo 1 added in small portions
T1 sequence (P01100 162-193 A167K/D174T/T181D/K188A limits assumed): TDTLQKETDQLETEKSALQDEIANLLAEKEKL
Description: FIG. 5. MALDI-TOF MS spectra of c-Fos (SEQ ID NO: 15) modification catalyzed by Jun(Rh2) (A) (SEQ ID NO: 14) and Max(Rh2) (B)(SEQ ID NO: 16). Reactions were 100 μM in substrate at pH 6.5. Metallopeptide and diazo 1 were added portion-wise to final concentrations of 200 μM and 5 mM, respectively. Sequences illustrate the expected alignment of the coiled coils and the site of modification (B) In the inset table, the ratio in parentheses indicates the ratio of singly to doubly modified product.
Metallopeptide Jun(Rh2) was prepared based on an affinity-optimized c-Jun variant with glutamate residues in g and […] positions. The target was the bZip domain of c-Fos, an oncogene product that regulates transcription by forming a heterodimeric coiled coil with c-Jun.
(§1) Purified Jun variant was metalated with Rh2(OAc)2(tfa)2 in aqueous buffer. […] In initial studies at 4° C., crude Jun(Rh2) directly from the metalation process could be used in modification reactions with activity identical to that of purified material, thus avoiding time-consuming and unnecessary material loss that accompanied isolation.
Catalytic activity was also investigated for a second metallopeptide based on the leucine-zipper Max.
For Jun(Rh2), MALDI-TOF MS/MS analysis established that Gln19 (position e) was modified. […] In the case of Max(Rh2), the dominant fragmentation pathway was cleavage of the modifying group.

Solubility on isolation = type: physicochemical; details: isolation after metalation in aqueous buffer
Description: as §1

[1] = Circular dichroism (CD) helicity of peptides and dirhodium adducts; type: physicochemical; details: for [θ]220, residual molar ellipticity: CD at 220 nm, water; for fH, helicity content: calculated from [θ]220, fH = ([θ]220 − [θ]c)/([θ]inf − [θ]c); for Rel. Hel %, relative helicity: calculated with [θ]inf = [θ]220 of EE4-Rh2(OAc)2; for fH (TFE), helicity content: calculated with [θ]inf = [θ]220 of EE4 in 100% TFE; for effect of dirhodium binding on helicity (in words): CD spectroscopy
Description: Peptides were prepared having 18 amino acids and a propensity toward helicity due to an alanine-rich sequence (Table 1). A complete turn of an α-helix requires about three or four amino acids, so carboxylate side chains (Asp, Glu) were placed in an i, i+3 or an i, i+4 relationship.
The peptides reacted with cis-Rh2(OAc)2(TFA)2, producing adducts with bridging dirhodium centers for both i, i+3 and i, i+4 carboxylate spacing. Circular dichroism (CD) spectroscopy assessed the effect of dirhodium binding on helicity.

Fos = target: T2, Fos (Homo sapiens, UniProt P01100, A167K/D174T/K188A/T181D); experiment: Temperature-dependent folding of Fos-metallopeptide coiled coil; type: physicochemical; details: Fos-Max(Rh2) temperature-dependent folding
T2 sequence (P01100 162-193 A167K/D174T/T181D/K188A limits assumed): T1 sequence (P01100 162-193 A167K/D174T/T181D/K188A limits assumed)
Description: Amazingly, site-specific reactivity can be templated on molecular recognition in interactions with such low affinities that they are uncharacterizable by available methods. Because metallopeptide Jun(Rh2) has ≧100 μM affinity for Fos, reactions at 10 μM successful even though the desired Fos-Jun(Rh2) dimer is not the major species.

[2] = 50 mol % K3a,eRh2, 10 mM diazo 1 added in two portions, 50 μM substrate, pH 6.2
[3] = 20 mol % K3a,eRh2, 10 mM diazo 1 added in two portions, 50 μM substrate, pH 6.2

Molecule	krel, relative modification rate (K3a,eRh2)	[θ]220, residual molar ellipticity [1] [deg cm^2 dmol-res^-1]	fH, helicity content [1]	Rel. Hel %, relative helicity [1] [%]	fH (TFE), helicity content [1]	effect of dirhodium binding on helicity (in words) [1]	other results
N=C(N)NCCC[C@H](N)C(=O)O [Arg]	100						% conv. at 24 h (K3a,eRh2; [2]): 73%
N[C@@H](CC(=O)O)C(=O)O [Asp]	100						% conv. at 24 h (K3a,eRh2; [3]): 53%; modification of variable residue (in words) (K3a,eRh2): modest conversion
N[C@@H](CS)C(=O)O [Cys]	560						% conv. at 24 h (K3a,eRh2; 10 mol % K3a,eRh2, 2.5 mM diazo 1, 50 μM substrate, pH 6.2, room temperature): 78%
NC(=O)CC[C@H](N)C(=O)O [Gln]	260						% conv. (K3a,eRh2; 10 mol % K3a,eRh2, reaction time 6 hours, 2.5 mM diazo 1, 50 μM substrate, pH 6.2): > 95%
N[C@@H](CCC(=O)O)C(=O)O [Glu]	130						% conv. at 24 h (K3a,eRh2; [3]): 76%
N[C@@H](Cc1c[nH]cn1)C(=O)O [His]	20						% conv. at 24 h (K3a,eRh2; [2]): 17^g %; modification of variable residue (in words) (K3a,eRh2): modest conversion
CC[C@H](C)[C@H](NC(=O)[C@H](CCC(N)=O)NC(=O)[C@H](CCC(N)=O)NC(=O)[C@H](CCCNC(=N)N)NC(=O)[C@H](CC(C)C)NC(=O)[C@H](CO)NC(=O)[C@H](CC(N)=O)NC(=O)[C@H](C)NC(=O)[C@@H](NC(=O)[C@H](CO)NC(=O)[C@H](C)NC(=O)[C@H](CCC(=O)O)NC(=O)[C@H](CO)NC(=O)[C@H](CO)NC(=O)[C@@H](NC(=O)[C@H](CCC(=O)O)NC(=O)[C@H](C)NC(=O)[C@H](CCCCN)NC(=O)[C@H](CC(C)C)NC(=O)[C@@H](NC(=O)[C@H](CCCCN)NC(=O)[C@@H](NC(=O)[C@H](CCCNC(=N)N)NC(=O)[C@H](CCC(N)=O)NC(=O)[C@H](CCC(N)=O)NC(=O)[C@H](CC(C)C)NC(=O)[C@H](CCC(N)=O)NC(=O)[C@H](C)NC(=O)[C@H](C)NC(C)=O)C(C)C)[C@@H](C)O)[C@@H](C)CC)[C@@H](C)O)C(=O)N[C@@H](C)C(=O)N[C@@H](CCC(N)=O)C(=O)N[C@@H](CC(C)C)C(N)=O [Jun(Rh2)] (Ac-AAQLQQRVKTLKAEISSEASTANSLRQQIAQL-NH2; N-terminus and C-terminus assumed)							c-Fos residue modified (bZip domain of c-Fos): Gln19; solubility (Solubility on isolation): poor solubility
NCCCC[C@H](N)C(=O)O [Lys]	20						% conv. at 24 h (K3a,eRh2; [2]): 8^g %; modification of variable residue (in words) (K3a,eRh2): modest conversion
C[C@@H](O)[C@H](N)C(=O)O [Thr]							modification of variable residue (in words) (K3a,eRh2): not observed
Ac-KAEAAAEAK-NH2 [sEE4]		-400	9	13	8		
Ac-YGKAAAADAAADKAAAAK-NH2 [DD4]		-5700	22	41	25	increased helicity	
Ac-YGKAAAADAADAKAAAAK-NH2 [DD3]		-5300	21	39	24	completely disrupt helicity	
Ac-YGKAAAADAAEAKAAAAK-NH2 [DE3]		-8000	29	52	32	completely disrupt helicity	
Ac-YGKAAAADAGADKAAAAK-NH2 [DD4G]		-1100	9	17	11		
Ac-YGKAAAAEAAAEKAAAAK-NH2 [EE4]		-12300	41	75	46	increased helicity	
Ac-YGKAAAAEAADAKAAAAK-NH2 [ED3]		-11400	38	70	43	completely disrupt helicity	
Ac-YGKAAAAEAAEAKAAAAK-NH2 [EE3]		-11500	39	70	44	increased helical	
Ac-YGKAAAAEAGADKAAAAK-NH2 [ED4G]		-1100	9	17	10		
Ac-YGKAAAAEAGAEKAAAAK-NH2 [EE4G]		-1900	12	21	13		
Ac-YGKAAAAEAGEAKAAAAK-NH2 [EE3G]		-2500	13	24	15	becomes helical	
Max(Rh2): dirhodium metallopeptide based on the leucine-zipper Max (SEQ ID NO: 16) (ARRKNFTFQQNINNLKRQEALLEQQVRAL; also: dirhodium metal complex)							conversion of c-Fos (bZip domain of c-Fos; 4° C.): 72%; c-Fos residue modified (bZip domain of c-Fos): both Glu14 and Glu21; conversion of c-Fos (bZip domain of c-Fos; −15° C.): 83%; TM (Fos): 20 °C

Reference: patent publication US8476407B2, “Metallopeptide catalysts” (William Marsh Rice University, priority 2009, dated 2013)
